Measurements as given in patent publication US20120244563A1.

Columns and labels:
Experiment in all cases: ELISA; coated glycoprotein, biotin-labeled lectin 1 µg/mL; grade of A450 reaction value (Low 0.1 to 0.2, Moderate 0.2 to 0.5, High 0.5 or more)
[1] = molecular target: α-Fetoprotein L3 (Homo sapiens (Human)) (UniProt P02771)
[2] = molecular target: Prostate-specific antigen (Homo sapiens (Human)) (UniProt P07288)
[3] = molecular target: α-Fetoprotein (Homo sapiens (Human)) (UniProt P02771)
[4] = molecular target: Immunoglobulin A
[5] = molecular target: Immunoglobulin G
[6] = molecular target: Immunoglobulin M
[7] = molecular target: α2-Macroglobulin
Sequence of α2-Macroglobulin (P01023 24-1474): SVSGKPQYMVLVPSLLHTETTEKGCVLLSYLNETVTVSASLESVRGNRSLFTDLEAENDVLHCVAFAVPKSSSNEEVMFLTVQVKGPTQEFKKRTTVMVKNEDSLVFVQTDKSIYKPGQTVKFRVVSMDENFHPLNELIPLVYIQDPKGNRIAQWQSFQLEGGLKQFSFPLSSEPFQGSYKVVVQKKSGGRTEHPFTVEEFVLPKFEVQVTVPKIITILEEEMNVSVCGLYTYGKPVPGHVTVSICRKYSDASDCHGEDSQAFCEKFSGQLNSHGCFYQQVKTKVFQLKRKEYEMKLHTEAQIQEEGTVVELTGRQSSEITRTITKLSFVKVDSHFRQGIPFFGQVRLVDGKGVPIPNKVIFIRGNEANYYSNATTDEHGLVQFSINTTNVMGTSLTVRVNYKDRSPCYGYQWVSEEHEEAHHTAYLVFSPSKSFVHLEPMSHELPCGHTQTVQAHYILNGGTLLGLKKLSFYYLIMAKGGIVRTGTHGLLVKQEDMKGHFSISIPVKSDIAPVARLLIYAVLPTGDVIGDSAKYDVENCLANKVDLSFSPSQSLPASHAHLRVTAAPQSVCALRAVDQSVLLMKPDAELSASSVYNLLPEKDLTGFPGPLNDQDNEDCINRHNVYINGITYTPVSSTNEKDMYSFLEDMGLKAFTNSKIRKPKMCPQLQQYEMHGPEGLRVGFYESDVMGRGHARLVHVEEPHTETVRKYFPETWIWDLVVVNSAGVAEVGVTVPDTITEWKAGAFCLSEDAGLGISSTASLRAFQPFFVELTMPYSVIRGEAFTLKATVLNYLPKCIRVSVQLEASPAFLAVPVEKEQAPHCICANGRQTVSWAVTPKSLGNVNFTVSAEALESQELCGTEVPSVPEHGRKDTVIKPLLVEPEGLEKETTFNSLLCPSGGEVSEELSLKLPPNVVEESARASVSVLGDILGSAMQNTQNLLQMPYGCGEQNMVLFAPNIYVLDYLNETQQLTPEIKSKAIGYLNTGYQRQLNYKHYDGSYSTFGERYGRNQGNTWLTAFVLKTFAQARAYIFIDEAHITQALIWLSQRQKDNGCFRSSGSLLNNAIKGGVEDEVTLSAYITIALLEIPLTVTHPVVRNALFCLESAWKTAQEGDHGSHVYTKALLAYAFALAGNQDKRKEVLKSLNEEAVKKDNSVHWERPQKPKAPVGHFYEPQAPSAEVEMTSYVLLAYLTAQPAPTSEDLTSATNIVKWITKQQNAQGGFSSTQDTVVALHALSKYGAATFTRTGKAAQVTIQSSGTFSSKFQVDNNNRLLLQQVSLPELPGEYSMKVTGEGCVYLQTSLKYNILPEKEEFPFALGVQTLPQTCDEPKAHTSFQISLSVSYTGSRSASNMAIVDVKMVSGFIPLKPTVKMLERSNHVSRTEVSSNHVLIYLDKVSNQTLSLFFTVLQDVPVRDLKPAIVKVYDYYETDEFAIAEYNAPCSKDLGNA

Sequence of α-Fetoprotein L3 (Homo sapiens (Human)) (P02771 19-609 limits assumed, form in doubt): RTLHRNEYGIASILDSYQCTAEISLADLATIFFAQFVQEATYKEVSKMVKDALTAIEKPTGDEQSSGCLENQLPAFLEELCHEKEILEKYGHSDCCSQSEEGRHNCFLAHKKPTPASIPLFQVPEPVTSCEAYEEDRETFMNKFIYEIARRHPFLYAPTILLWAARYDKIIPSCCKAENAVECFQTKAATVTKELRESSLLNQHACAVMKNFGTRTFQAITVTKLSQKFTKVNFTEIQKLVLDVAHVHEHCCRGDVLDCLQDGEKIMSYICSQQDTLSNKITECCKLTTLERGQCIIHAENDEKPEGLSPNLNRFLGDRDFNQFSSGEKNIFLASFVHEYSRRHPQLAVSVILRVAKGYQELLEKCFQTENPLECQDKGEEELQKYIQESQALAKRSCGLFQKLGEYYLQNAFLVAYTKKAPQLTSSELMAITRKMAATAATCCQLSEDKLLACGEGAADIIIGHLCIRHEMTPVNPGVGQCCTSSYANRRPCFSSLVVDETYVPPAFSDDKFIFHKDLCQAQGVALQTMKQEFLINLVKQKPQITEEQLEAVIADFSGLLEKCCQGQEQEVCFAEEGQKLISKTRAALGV
Sequence of Prostate-specific antigen (Homo sapiens (Human)) (P07288 25-261 limits assumed, form in doubt): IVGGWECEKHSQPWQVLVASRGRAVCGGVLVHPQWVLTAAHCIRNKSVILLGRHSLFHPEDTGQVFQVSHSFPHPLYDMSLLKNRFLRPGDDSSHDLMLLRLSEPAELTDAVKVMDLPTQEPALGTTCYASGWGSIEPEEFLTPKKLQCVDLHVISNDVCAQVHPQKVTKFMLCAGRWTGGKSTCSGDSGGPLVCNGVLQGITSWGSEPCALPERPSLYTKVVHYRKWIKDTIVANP
Sequence of α-Fetoprotein (Homo sapiens (Human)) (P02771 19-609 limits assumed, form in doubt): as the sequence (P02771 19-609 limits assumed, form in doubt) above

| reaction value (absorbance at 450 nm minus blank) [1] [od] | reaction value (absorbance at 450 nm minus blank) [2] [od] | reaction value (absorbance at 450 nm minus blank) [3] [od] | reaction value (absorbance at 450 nm minus blank) [4] [od] | reaction value (absorbance at 450 nm minus blank) [5] [od] | reaction value (absorbance at 450 nm minus blank) [6] [od] | reaction value (absorbance at 450 nm minus blank) [7] [od] | Substance |
| --- | --- | --- | --- | --- | --- | --- | --- |
| > 0.5 |  |  |  |  |  |  | Lens culinaris lectin (from UniProt P02870 31-210; P02870 218-269) |
| > 0.5 | 0.2 to 0.5 | 0.2 to 0.5 |  |  |  |  | Aleuria aurantia lectin (from UniProt P18891 2-313) |
| > 0.5 | > 0.5 |  | 0.2 to 0.5 | 0.1 to 0.2 | 0.1 to 0.2 | 0.2 to 0.5 | Pholiota terrestris Overholts lectin |
